Data reported in US20040054149.

B1: truncated aggrecanase-2 from amino acid #1 through amino acid #567 (protein)
chain: SISRARQVELLLVADASMARLYGRGLQHYLLTLASIANRLYSHASIENHIRLAVVKVVVLGDKDKSLEVSKNAATTLKNFCKWQHQHNQLGDDHEEHYDAAILFTREDLCGHHSCDTLGMADVGTICSPERSCAVIEDDGLHAAFTVAHEIGHLLGLSHDDSKFCEETFGSTEDKRLMSSILTSIDASKPWSKCTSATITEFLDDGHGNCLLDLPRKQILGPEELPGQTYDATQQCNLTFGPEYSVCPGMDVCARLWCAVVRQGQMVCLTKKLPAVEGTPCGKGRICLQGKCVDKTKKKYYSTSSH
B2: truncated aggrecanase-2 from amino acid #1 through amino acid #628 (protein)
chain: SISRARQVELLLVADASMARLYGRGLQHYLLTLASIANRLYSHASIENHIRLAVVKVVVLGDKDKSLEVSKNAATTLKNFCKWQHQHNQLGDDHEEHYDAAILFTREDLCGHHSCDTLGMADVGTICSPERSCAVIEDDGLHAAFTVAHEIGHLLGLSHDDSKFCEETFGSTEDKRLMSSILTSIDASKPWSKCTSATITEFLDDGHGNCLLDLPRKQILGPEELPGQTYDATQQCNLTFGPEYSVCPGMDVCARLWCAVVRQGQMVCLTKKLPAVEGTPCGKGRICLQGKCVDKTKKKYYSTSSHGNWGSWGSWGQCSRSCGGGVQFAYRHCNNPAPRNNGRYCTGKRAIYRSCSLMPCPPNGKSF
B3: ADAMTS-5 active site mutant (E411-Q411) (protein)
chain: SISRARQVELLLVADASMARLYGRGLQHYLLTLASIANRLYSHASIENHIRLAVVKVVVLGDKDKSLEVSKNAATTLKNFCKWQHQHNQLGDDHEEHYDAAILFTREDLCGHHSCDTLGMADVGTICSPERSCAVIEDDGLHAAFTVAHQIGHLLGLSHDDSKFCEETFGSTEDKRLMSSILTSIDASKPWSKCTSATITEFLDDGHGNCLLDLPRKQILGPEELPGQTYDATQQCNLTFGPEYSVCPGMDVCARLWCAVVRQGQMVCLTKKLPAVEGTPCGKGRICLQGKCVDKTKKKYYSTSSHGNWGSWGSWGQCSRSCGGGVQFAYRHCNNPAPRNNGRYCTGKRAIYRSCSLMPCPPNGKSFRHEQCEAKNGYQSDAKGVKTFVEWVPKYAGVLPADVCKLTCRAKGTGYYVVFSPKVTDGTECRPYSNSVCVRGKCVRTGCDGIIGSKLQYDKCGVCGGDNSSCTKIVGTFNKKSKGYTDVVRIPEGATHIKVRQFKAKDQTRFTAYLALKKKNGEYLINGKYMISTSETIIDINGTVMNYSGWSHRDDFLHGMGYSATKEILIVQILATDPTKPLDVRYSFFVPKKSTPKVNSVTSHGSNKVGSHTSQPQWVTGPWLACSRTCDTGWHTRTVQCQDGNRKLAKGCPLSQRPSAFKQCLLKKC

Target: chondroitinase-treated bovine aggrecan, P13608
Sequence (P13608 17-2364): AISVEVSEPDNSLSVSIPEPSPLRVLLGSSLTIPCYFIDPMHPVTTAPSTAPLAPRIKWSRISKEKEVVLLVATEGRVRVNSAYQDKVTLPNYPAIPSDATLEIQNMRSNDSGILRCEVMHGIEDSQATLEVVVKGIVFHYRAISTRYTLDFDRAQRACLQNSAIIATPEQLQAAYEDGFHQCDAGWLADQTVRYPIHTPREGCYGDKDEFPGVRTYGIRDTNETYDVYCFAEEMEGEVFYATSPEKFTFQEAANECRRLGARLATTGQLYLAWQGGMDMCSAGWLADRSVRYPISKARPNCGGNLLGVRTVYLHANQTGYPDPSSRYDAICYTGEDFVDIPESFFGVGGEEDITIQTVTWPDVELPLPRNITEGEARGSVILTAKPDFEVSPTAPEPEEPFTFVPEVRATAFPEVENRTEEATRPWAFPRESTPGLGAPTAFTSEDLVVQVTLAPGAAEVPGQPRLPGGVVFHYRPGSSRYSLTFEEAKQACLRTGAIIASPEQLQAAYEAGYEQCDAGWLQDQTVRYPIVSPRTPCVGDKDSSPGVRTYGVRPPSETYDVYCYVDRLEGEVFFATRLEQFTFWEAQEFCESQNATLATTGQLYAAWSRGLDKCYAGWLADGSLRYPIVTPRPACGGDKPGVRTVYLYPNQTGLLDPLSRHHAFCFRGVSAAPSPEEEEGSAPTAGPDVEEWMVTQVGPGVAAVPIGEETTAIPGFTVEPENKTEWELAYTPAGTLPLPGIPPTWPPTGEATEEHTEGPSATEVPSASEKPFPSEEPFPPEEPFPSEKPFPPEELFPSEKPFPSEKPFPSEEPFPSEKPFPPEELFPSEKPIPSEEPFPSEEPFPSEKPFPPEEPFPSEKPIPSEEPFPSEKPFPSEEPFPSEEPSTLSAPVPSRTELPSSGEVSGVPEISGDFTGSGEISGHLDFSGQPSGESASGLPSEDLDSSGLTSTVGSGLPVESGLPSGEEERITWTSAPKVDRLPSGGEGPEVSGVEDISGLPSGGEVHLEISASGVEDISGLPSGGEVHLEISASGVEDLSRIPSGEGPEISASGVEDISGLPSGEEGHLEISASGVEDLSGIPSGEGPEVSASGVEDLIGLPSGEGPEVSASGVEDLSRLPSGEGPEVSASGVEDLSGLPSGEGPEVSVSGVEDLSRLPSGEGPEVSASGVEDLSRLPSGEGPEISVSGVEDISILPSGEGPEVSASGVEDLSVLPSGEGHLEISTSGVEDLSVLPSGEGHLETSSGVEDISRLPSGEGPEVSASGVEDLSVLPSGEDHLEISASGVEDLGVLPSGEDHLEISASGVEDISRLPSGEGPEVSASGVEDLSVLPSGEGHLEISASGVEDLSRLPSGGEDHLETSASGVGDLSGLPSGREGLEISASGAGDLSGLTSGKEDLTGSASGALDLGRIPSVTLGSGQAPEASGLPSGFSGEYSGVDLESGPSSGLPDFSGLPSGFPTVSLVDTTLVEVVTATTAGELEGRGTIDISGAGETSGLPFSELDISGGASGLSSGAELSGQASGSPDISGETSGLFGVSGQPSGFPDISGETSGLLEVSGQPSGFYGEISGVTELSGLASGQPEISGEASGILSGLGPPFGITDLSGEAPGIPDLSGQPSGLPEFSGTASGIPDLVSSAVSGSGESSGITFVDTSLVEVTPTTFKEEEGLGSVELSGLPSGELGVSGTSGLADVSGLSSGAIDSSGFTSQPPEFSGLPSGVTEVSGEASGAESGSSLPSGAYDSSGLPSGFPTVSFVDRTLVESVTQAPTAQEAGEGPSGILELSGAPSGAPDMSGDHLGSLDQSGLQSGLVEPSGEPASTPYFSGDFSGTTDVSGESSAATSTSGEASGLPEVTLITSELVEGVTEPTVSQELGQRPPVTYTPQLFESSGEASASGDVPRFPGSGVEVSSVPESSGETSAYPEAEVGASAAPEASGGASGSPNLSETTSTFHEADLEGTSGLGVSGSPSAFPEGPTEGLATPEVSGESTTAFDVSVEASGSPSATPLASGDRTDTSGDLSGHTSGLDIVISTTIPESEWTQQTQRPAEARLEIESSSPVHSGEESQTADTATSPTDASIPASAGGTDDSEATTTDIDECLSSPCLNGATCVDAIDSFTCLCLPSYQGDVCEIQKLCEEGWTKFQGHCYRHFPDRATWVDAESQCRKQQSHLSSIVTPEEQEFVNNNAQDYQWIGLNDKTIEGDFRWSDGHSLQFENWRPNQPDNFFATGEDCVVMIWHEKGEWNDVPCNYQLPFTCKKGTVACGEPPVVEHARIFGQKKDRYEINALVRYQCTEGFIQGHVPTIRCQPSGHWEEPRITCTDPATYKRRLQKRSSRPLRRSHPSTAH

Protein	% aggrecan cleavage (3B3 ELISA assay)	aggrecanase activity (ELISA)
B1	truncated aggrecanases of the invention having one or both TSP domains deleted are biologically active	–
B2	truncated aggrecanases of the invention having one or both TSP domains deleted are biologically active	–
B3	–	lacked aggrecanase activity as shown by ELISA (FIG. 16)
